Experiment [1] addresses T1, Aβ1-42 (UniProt P05067 672-713).
T1 construct: domain: Aβ1-42; Aβ 1-42 is a part of it; also called A beta
Briefly: Aβ 1-42 ELISA, peptide on plate; C-terminal VD. How it is done:
(§1) ELISA assays were performed to screen for antibodies that bind a desired target antigen as follows. Maxisorb NUNC Immuno plates were coated with 100 μL/well of 1 μg/ml of Aβ1-42 diluted in coating buffer overnight at 6° C. Plates were washed three times with PBS containing 0.02% Tween 20. Blocking solution was prepared by dissolving the blocking reagent for ELISA (Roche) in 100 mL water and then diluted further 1:10 prior to use. Plates were blocked by the addition of 265 μL/well blocking solution for 2 hours at room temperature. Plates were washed three times after blocking with PBS containing 0.02% Tween 20.
(§2) Antibody or DVD-Igs were diluted to 100 ng/μL in PBST+0.5% BSA and serially diluted 1:3. One hundred microliters of antibody or DVD-Ig preparations was added to the plate and incubated for 2 hour at room temperature. Wells were washed three times with PBS containing 0.02% Tween 20.
(§3) One hundred microliters of TMB solution was added to each well and incubated for 10 minutes. TMB solution was prepared by mixing 20 mL 100 mM natrium-acetate pH4.9 with 200 μL TMB solution (Roche #92817060) and 29.5 μL 3% H₂O₂. The reaction was stopped by the addition of 50 μL 1N sulphuric acid. Plates were read spectrophotometrically at a wavelength of 450 nm.

The target in experiment [2] is T2, Aβ 20-42 globulomer (UniProt P05067 691-713).
T2 construct: domain: Aβ 20-42 globulomer
T2 peptide (looked up): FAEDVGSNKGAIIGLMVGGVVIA
As to the kind of experiment: Aβ 20-42 globulomer ELISA, antigen on plate; N-terminal VD. How it is done: (§4) ELISA assays were performed to screen for antibodies that bind a desired target antigen as follows. Aβ 20-42 globulomer and PBS at 37° C. was pre-warmed for 1 minute. High bind ELISA plates (Corning Costar #3369, Acton, Mass.) were coated with 100 μL/well of 41 µg/ml of Aβ 20-42 globulomer diluted in PBS overnight at 4° C. Plates were blocked with 320 μL/well of 100% superblock PBS buffer (Thermo Scientific, #37515) and incubated for 45 minutes at room temperature. Plates were washed three times after blocking with PBS containing 0.02% Tween 20.
(§5) Antibody or DVD-Igs were diluted to 2000 ng/mL, 1000 ng/mL, 200 ng/mL, 40 ng/mL, 8 ng/mL, 1.6 ng/mL and 0.32 ng/mL in 10% superblock in PBS. One hundred microliters of antibody or DVD-Ig preparations was added to the plate in triplicate and incubated for 2 hours at room temperature. Wells were washed five times with PBS containing 0.02% Tween 20.
(§6) One hundred microliters of TMB solution (Invitrogen-Zymed; #00-2023) was added to each well and incubated for 5 minutes. The reaction was stopped by the addition of 100 μL 2N sulphuric acid. Plates were read spectrophotometrically at a wavelength of 450 nm.

Experiment [3] deals with T1, Aβ1-42. Briefly: Aβ 1-42 ELISA, peptide on plate; parent antibody. How it is done:
as §1, §2, §3

Experiment [4] has as its target T1, Aβ1-42. Briefly: Aβ 1-42 ELISA, peptide on plate; N-terminal VD. How it is done:
as §1, §2, §3

For experiment [5], the target named is T2, Aβ 20-42 globulomer. Briefly: Aβ 20-42 globulomer ELISA, antigen on plate; C-terminal VD. How it is done: as §4, §5, §6
In experiment [6] the target is T3, IGF-I (UniProt P05019 49-118).
T3 construct: Bought reagent; also called IGF1; IGF-1
Briefly: direct bind ELISA, antigen on plate; parent antibody; first of the two numbers, IGF1. How it is done:
(§7) Enzyme Linked Immunosorbent Assays to screen for antibodies that bind a desired target antigen were performed as follows. High bind ELISA plates (Corning Costar #3369, Acton, Mass.) were coated with 100 μL/well of 10 μg/ml of desired target antigen (R&D Systems, Minneapolis, Minn.) or desired target antigen extra-cellular domain/FC fusion protein (R&D Systems, Minneapolis, Minn.) or monoclonal mouse anti-polyHistidine antibody (R&D Systems # MAB050, Minneapolis, Minn.) in phosphate buffered saline (10×PBS, Abbott Bioresearch Center, Media Prep# MPS-073, Worcester, Mass.) overnight at 4° C. Plates were washed four times with PBS containing 0.02% Tween 20. Plates were blocked by the addition of 300 μL/well blocking solution (non-fat dry milk powder, various retail suppliers, diluted to 2% in PBS) for 1/2 hour at room temperature. Plates were washed four times after blocking with PBS containing 0.02% Tween 20.
(§8) One hundred microliters of antibody or DVD-Ig preparations diluted in blocking solution as described above was added to the desired target antigen plate or desired target antigen/FC fusion plate or the anti-polyHistidine antibody/His tagged desired target antigen plate prepared as described above and incubated for 1 hour at room temperature. Wells were washed four times with PBS containing 0.02% Tween 20. […]

Experiment [7] addresses T4, IGF-II (UniProt P01344 25-91).
T4 construct: Bought reagent; also called IGF2; IGF-2
Briefly: direct bind ELISA, antigen on plate; parent antibody; second of the two numbers, IGF2. How it is done: as §7, §8

The target of experiment [8] is T5, Recombinant Human IL-1β (human, UniProt P01584 117-269). Briefly: cell-based or functional assay.
Experiment [9] addresses T5, Recombinant Human IL-1β. Briefly: direct bind ELISA, antigen on plate; N-terminal VD. How it is done: as §7
(§9) One hundred microliters of antibody or DVD-Ig preparations diluted in blocking solution as described above was added to the desired target antigen plate or desired target antigen/FC fusion plate or the anti-polyHistidine antibody/His tagged desired target antigen plate prepared as described above and incubated for 1 hour at room temperature. Wells were washed four times with PBS containing 0.02% Tween 20.
(§10) One hundred microliters of 10 ng/mL goat anti-human IgG-FC specific HRP conjugated antibody (Southern Biotech #2040-05, Birmingham, Ala.) was added to each well of the desired target antigen plate or anti-polyHistidine antibody/Histidine tagged desired target antigen plate. Alternatively, one hundred microliters of 10 ng/mL goat anti-human IgG-kappa light chain specific HRP conjugated antibody (Southern Biotech #2060-05 Birmingham, Ala.) was added to each well of the desired target antigen/FC fusion plate and incubated for 1 hour at room temperature. Plates were washed 4 times with PBS containing 0.02% Tween 20.

For experiment [10], the target named is T3, IGF-I. Briefly: direct bind ELISA, antigen on plate; C-terminal VD. How it is done:
as §7, §9, §10

Experiment [11] deals with T4, IGF-II. Briefly: direct bind ELISA, antigen on plate; C-terminal VD. How it is done:
as §7, §9, §10

Experiment [12] addresses T2, Aβ 20-42 globulomer. As to the kind of experiment: Aβ 20-42 globulomer ELISA, antigen on plate; parent antibody. How it is done: as §4, §5, §6
Experiment [13] addresses T5, Recombinant Human IL-1β. As to the kind of experiment: direct bind ELISA, antigen on plate; C-terminal VD. How it is done: as §7, §9, §10

Eight molecules from patent US20150183867A1 (AbbVie / Abbott, published 2015) can be followed below.

B1: DVD201 (bispecific antibody, human IgG1, kappa)
heavy: not shown
light: DVLVTQSPLSLPVTPGEPASISCRSTQTLVHRNGDTYLEWYLQKPGQSPQSLIYKVSNRFSGVPDRFSGSGSGTDFTLKISRVEAEDVGVYYCFQGSHVPYTFGQGTKLEIKRTVAAPDVVMTQSPLSLPVTPGEPASISCKSSQSLLDSDGKTYLNWLLQKPGQSPQRLIYLVSKLDSGVPDRFSGSGSGTDFTLKISRVEAEDVGVYYCWQGTHFPRTFGQGTKVEIKRTVAAPSVFIFPPSDEQLKSGTASVVCLLNNFYPREAKVQWKVDNALQSGNSQESVTEQDSKDSTYSLSSTLTLSKADYEKHKVYACEVTHQGLSSPVTKSFNRGEC
notes: DVD-Ig; also called VD201H/VD201L
On to B1, for which the results for the EC50 in the experiment with Aβ1-42 [1] and with Aβ 20-42 globulomer [2] were 0.024 nM and 0.397 nM, respectively.

B2: AB043 (antibody, human IgG1, kappa, V domains shown)
VH: EVQLLESGGGLVQPGGSLRLSCAASGFTFSNYGMSWVRQAPGKGLEWVASIRSGGGRTYYSDNVKGRFTISRDNSKNTLYLQMNSLRAEDTAVYYCVRYDHYSGSSDYWGQGTLVTVSS
VL: DVVMTQSPLSLPVTPGEPASISCKSSQSLLDSDGKTYLNWLLQKPGQSPQRLIYLVSKLDSGVPDRFSGSGSGTDFTLKISRVEAEDVGVYYCWQGTHFPRTFGQGTKVEIKR
With B2, in the experiment with Aβ1-42 [3], the EC50 was 0.012 nM.

B3: DVD202 (bispecific antibody, human IgG1, kappa)
heavy: not shown
light: DVVMTQSPLSLPVTPGEPASISCKSSQSLLDSDGKTYLNWLLQKPGQSPQRLIYLVSKLDSGVPDRFSGSGSGTDFTLKISRVEAEDVGVYYCWQGTHFPRTFGQGTKVEIKRTVAAPDVLVTQSPLSLPVTPGEPASISCRSTQTLVHRNGDTYLEWYLQKPGQSPQSLIYKVSNRFSGVPDRFSGSGSGTDFTLKISRVEAEDVGVYYCFQGSHVPYTFGQGTKLEIKRTVAAPSVFIFPPSDEQLKSGTASVVCLLNNFYPREAKVQWKVDNALQSGNSQESVTEQDSKDSTYSLSSTLTLSKADYEKHKVYACEVTHQGLSSPVTKSFNRGEC
notes: DVD-Ig; also called VD202H/VD202L
On to B3, for which the EC50 with Aβ1-42 [4] turned out to be 0.017 nM; with Aβ 20-42 globulomer [5], 0.178 nM.

B4: AB010 (antibody, human IgG1, lambda, V domains shown)
VH: QVQLVQSGAEVKKPGASVKVSCKASGYTFTSYDINWVRQATGQGLEWMGWMNPNSGNTGYAQKFQGRVTMTRNTSISTAYMELSSLRSEDTAVYYCARDPYYYYYGMDVWGQGTTVTVSS
VL: QSVLTQPPSVSAAPGQKVTISCSGSSSNIENNHVSWYQQLPGTAPKLLIYDNNKRPSGIPDRFSGSKSGTSATLGITGLQTGDEADYYCETWDTSLSAGRVFGGGTKLTVLG
notes: also called IGF1,2 parent antibody
With B4, the EC50 in the experiment with IGF-I [6] is 10.1 nM; with IGF-II [7], 2.93 nM.

B5: DVD226 (bispecific antibody, human IgG1, kappa)
heavy: not shown
light: EIVLTQSPDFQSVTPKEKVTITCRASQSIGSSLHWYQQKPDQSPKLLIKYASQSFSGVPSRFSGSGSGTDFTLTINSLEAEDAAAYYCHQSSSLPFTFGPGTKVDIKRTVAAPDVVMTQSPLSLPVTPGEPASISCKSSQSLLDSDGKTYLNWLLQKPGQSPQRLIYLVSKLDSGVPDRFSGSGSGTDFTLKISRVEAEDVGVYYCWQGTHFPRTFGQGTKVEIKRTVAAPSVFIFPPSDEQLKSGTASVVCLLNNFYPREAKVQWKVDNALQSGNSQESVTEQDSKDSTYSLSSTLTLSKADYEKHKVYACEVTHQGLSSPVTKSFNRGEC
notes: DVD-Ig; also called VD226H/VD226L
On to B5, for which the “N-Terminal VD IL-1β Neutralization Assay EC50” value with Recombinant Human IL-1β [8] turned out to be 0.028 nM. The EC50 was found to be 0.045 nM in the experiment with Aβ1-42 [1] and 9.52 nM in the experiment with Recombinant Human IL-1β [9].

B6: DVD229 (bispecific antibody, human IgG1, lambda)
heavy: not shown
light: DVVMTQSPLSLPVTPGEPASISCKSSQSLLDSDGKTYLNWLLQKPGQSPQRLIYLVSKLDSGVPDRFSGSGSGTDFTLKISRVEAEDVGVYYCWQGTHFPRTFGQGTKVEIKRTVAAPQSVLTQPPSVSAAPGQKVTISCSGSSSNIENNHVSWYQQLPGTAPKLLIYDNNKRPSGIPDRFSGSKSGTSATLGITGLQTGDEADYYCETWDTSLSAGRVFGGGTKLTVLGQPKAAPSVTLFPPSSEELQANKATLVCLISDFYPGAVTVAWKADSSPVKAGVETTTPSKQSNNKYAASSYLSLTPEQWKSHRSYSCQVTHEGSTVEKTVAPTECS
notes: DVD-Ig; also called VD229H/VD229L
As for B6, the figures for the EC50 with Aβ1-42 [4], with IGF-I [10] and with IGF-II [11] were 0.016 nM, 210 nM and 131 nM, respectively.

B7: AB044 (antibody, human IgG1, lambda, V domains shown)
VH: EVKLVESGGGLVKPGGSLRLSCAASGFTFSSYAMSWVRQAPGKGLEWVASIHNRGTIFYLDSVKGRFTISRDNVRNTLYLQMNSLRAEDTAVYYCTRGRSNSYAMDYWGQGTSVTVSS
VL: DVLVTQSPLSLPVTPGEPASISCRSTQTLVHRNGDTYLEWYLQKPGQSPQSLIYKVSNRFSGVPDRFSGSGSGTDFTLKISRVEAEDVGVYYCFQGSHVPYTFGQGTKLEIKR
notes: the light constant region is therefore doubtful
For B7, in the experiment with Aβ 20-42 globulomer [12], the EC50 was found to be 0.319 nM.

B8: DVD225 (bispecific antibody, human IgG1, kappa)
heavy: not shown
light: DVVMTQSPLSLPVTPGEPASISCKSSQSLLDSDGKTYLNWLLQKPGQSPQRLIYLVSKLDSGVPDRFSGSGSGTDFTLKISRVEAEDVGVYYCWQGTHFPRTFGQGTKVEIKRTVAAPEIVLTQSPDFQSVTPKEKVTITCRASQSIGSSLHWYQQKPDQSPKLLIKYASQSFSGVPSRFSGSGSGTDFTLTINSLEAEDAAAYYCHQSSSLPFTFGPGTKVDIKRTVAAPSVFIFPPSDEQLKSGTASVVCLLNNFYPREAKVQWKVDNALQSGNSQESVTEQDSKDSTYSLSSTLTLSKADYEKHKVYACEVTHQGLSSPVTKSFNRGEC
notes: DVD-Ig; also called VD225H/VD225L
Consider B8, for which the “C-Terminal VD IL-1β Neutralization Assay EC50” value with Recombinant Human IL-1β [8] came out at 12.7 nM. The EC50 is 0.016 nM with Aβ1-42 [4] and 3940 nM with Recombinant Human IL-1β [13].
